Data reported in IntAct's records for PubMed 31515488.

B1: Centrosomal protein POC5 (Homo sapiens), Q8NA72 (parent)
chain: MSSDEEKYSLPVVQNDSSRGSSVSSNLQEEYEELLHYAIVTPNIEPCASQSSHPKGELVPDVRISTIHDILHSQGNNSEVRETAIEVGKGCDFHISSHSKTDESSPVLSPRKPSHPVMDFFSSHLLADSSSPATNSSHTDAHEILVSDFLVSDENLQKMENVLDLWSSGLKTNIISELSKWRLNFIDWHRMEMRKEKEKHAAHLKQLCNQINELKELQKTFEISIGRKDEVISSLSHAIGKQKEKIELMRTFFHWRIGHVRARQDVYEGKLADQYYQRTLLKKVWKVWRSVVQKQWKDVVERACQARAEEVCIQISNDYEAKVAMLSGALENAKAEIQRMQHEKEHFEDSMKKAFMRGVCALNLEAMTIFQNRNDAGIDSTNNKKEEYGPGVQGKEHSAHLDPSAPPMPLPVTSPLLPSPPAAVGGASATAVPSAASMTSTRAASASSVHVPVSALGAGSAATAASEEMYVPRVVTSAQQKAGRTITARITGRCDFASKNRISSSLAIMGVSPPMSSVVVEKHHPVTVQTIPQATAAKYPRTIHPESSTSASRSLGTRSAHTQSLTSVHSIKVVD
B2: E3 ubiquitin-protein ligase MYLIP (Homo sapiens), Q8WY64 (parent)
chain: MLCYVTRPDAVLMEVEVEAKANGEDCLNQVCRRLGIIEVDYFGLQFTGSKGESLWLNLRNRISQQMDGLAPYRLKLRVKFFVEPHLILQEQTRHIFFLHIKEALLAGHLLCSPEQAVELSALLAQTKFGDYNQNTAKYNYEELCAKELSSATLNSIVAKHKELEGTSQASAEYQVLQIVSAMENYGIEWHSVRDSEGQKLLIGVGPEGISICKDDFSPINRIAYPVVQMATQSGKNVYLTVTKESGNSIVLLFKMISTRAASGLYRAITETHAFYRCDTVTSAVMMQYSRDLKGHLASLFLNENINLGKKYVFDIKRTSKEVYDHARRALYNAGVVDLVSRNNQSPSHSPLKSSESSMNCSSCEGLSCQQTRVLQEKLRKLKEAMLCMVCCEEEINSTFCPCGHTVCCESCAAQLQSCPVCRSRVEHVQHVYLPTHTSLLNLTVI
partner: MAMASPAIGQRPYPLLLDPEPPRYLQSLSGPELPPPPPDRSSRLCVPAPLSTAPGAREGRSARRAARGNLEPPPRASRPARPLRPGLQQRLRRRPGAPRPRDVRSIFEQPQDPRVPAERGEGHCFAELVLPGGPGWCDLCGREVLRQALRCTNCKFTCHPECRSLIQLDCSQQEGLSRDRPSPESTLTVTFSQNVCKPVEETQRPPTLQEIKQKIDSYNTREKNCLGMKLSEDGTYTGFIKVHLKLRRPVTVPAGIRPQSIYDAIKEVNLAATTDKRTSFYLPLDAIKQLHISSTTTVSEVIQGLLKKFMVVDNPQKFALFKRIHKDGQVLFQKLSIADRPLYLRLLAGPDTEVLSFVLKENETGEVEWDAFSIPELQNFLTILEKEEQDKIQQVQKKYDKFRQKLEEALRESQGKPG
B3: Nucleoporin p58/p45 (Homo sapiens), Q9BVL2 (parent)
chain: MSTGFSFGSGTLGSTTVAAGGTSTGGVFSFGTGASSNPSVGLNFGNLGSTSTPATTSAPSSGFGTGLFGSKPATGFTLGGTNTGIATTITTGLTLGTPATTSAATTGFSLGFNKPAASATPFALPITSTSASGLTLSSALTSTPAASTGFTLNNLGGTTATTTTASTGLSLGGALAGLGGSLFQSTNTGTSGLGQNALGLTLGTTAATSTAGNEGLGGIDFSSSSDKKSDKTGTRPEDSKALKDENLPPVICQDVENLQKFVKEQKQVQEEISRMSSKAMLKVQEDIKALKQLLSLAANGIQRNTLNIDKLKIETAQELKNAEIALRTQKTPPGLQHEYAAPADYFRILVQQFEVQLQQYRQQIEELENHLATQANNSHITPQDLSMAMQKIYQTFVALAAQLQSIHENVKVLKEQYLGYRKMFLGDAVDVFETRRAEAKKWQNTPRVTTGPTPFSTMPNAAAVAMAATLTQQQQPATGPQPSLGVSFGTPFGSGIGTGLQSSGLGSSNLGGFGTSSGFGCSTTGASTFGFGTTNKPSGSLSAGFGSSSTSGFNFSNPGITASAGLTFGVSNPASAGFGTGGQLLQLKKPPAGNKRGKR
B4: Cysteine-rich C-terminal protein 1 (Homo sapiens), Q9UGL9 (parent)
chain: MSSQQSAVSAKGFSKGSSQGPAPCPAPAPTPAPASSSSCCGSGRGCCGDSGCCGSSSTSCCCFPRRRRRQRSSGCCCCGGGSQRSQRSNNRSSGCCSGC
partner: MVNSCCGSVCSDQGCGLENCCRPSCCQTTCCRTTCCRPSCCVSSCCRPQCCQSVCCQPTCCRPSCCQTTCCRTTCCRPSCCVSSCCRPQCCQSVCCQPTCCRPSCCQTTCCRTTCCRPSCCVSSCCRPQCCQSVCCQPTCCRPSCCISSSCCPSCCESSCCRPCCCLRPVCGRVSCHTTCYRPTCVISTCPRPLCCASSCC

Variants of: B1
Settings: with cetn1_human CETN1, Q12798
Sequence of cetn1_human CETN1, Q12798 (Q12798 whole entry): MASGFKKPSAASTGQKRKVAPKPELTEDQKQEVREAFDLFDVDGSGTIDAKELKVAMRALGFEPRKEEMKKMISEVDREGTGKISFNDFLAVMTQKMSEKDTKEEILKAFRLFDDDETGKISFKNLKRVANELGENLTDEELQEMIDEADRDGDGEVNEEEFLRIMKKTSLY

Row | Variant | effect of a mutation on the interaction
1 | H36R | with no effect
2 | R302K | with no effect
3 | A446T | with no effect
4 | I175M | with no effect

Variants of: B1
Settings: with cetn2_human CETN2, P41208
Sequence of cetn2_human CETN2, P41208 (P41208 whole entry): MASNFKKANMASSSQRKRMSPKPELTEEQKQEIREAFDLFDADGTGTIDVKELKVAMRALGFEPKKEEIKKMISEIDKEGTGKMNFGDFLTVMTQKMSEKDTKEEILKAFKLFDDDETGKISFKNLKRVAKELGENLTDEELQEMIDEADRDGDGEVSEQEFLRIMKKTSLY

Row | Variant | effect of a mutation on the interaction
5 | H36R | with no effect

Variants of: B2
Settings: with rasf5_human RASSF5, Q8WWW0

Row | Variant | effect of a mutation on the interaction
6 | N342S | with no effect

Variants of: B3
Settings: with nup62_human NUP62, P37198
Sequence of nup62_human NUP62, P37198 (P37198 whole entry): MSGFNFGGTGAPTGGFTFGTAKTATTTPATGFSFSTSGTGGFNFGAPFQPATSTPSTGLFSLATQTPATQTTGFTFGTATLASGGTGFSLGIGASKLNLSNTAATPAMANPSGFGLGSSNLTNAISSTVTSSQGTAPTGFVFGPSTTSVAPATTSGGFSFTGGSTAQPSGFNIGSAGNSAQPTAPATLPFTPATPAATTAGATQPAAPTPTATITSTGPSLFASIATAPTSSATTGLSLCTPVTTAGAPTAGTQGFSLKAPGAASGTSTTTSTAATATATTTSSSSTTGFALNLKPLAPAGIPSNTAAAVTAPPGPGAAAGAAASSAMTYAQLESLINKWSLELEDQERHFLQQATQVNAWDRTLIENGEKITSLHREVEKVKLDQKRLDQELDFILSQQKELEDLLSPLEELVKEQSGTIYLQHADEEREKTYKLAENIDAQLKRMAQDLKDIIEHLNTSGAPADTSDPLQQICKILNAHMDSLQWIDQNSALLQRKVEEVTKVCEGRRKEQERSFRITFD

Row | Variant | effect of a mutation on the interaction
7 | A34T | with no effect

Variants of: B3
Settings: with traf1_human TRAF1, Q13077
Sequence of traf1_human TRAF1, Q13077 (Q13077 whole entry): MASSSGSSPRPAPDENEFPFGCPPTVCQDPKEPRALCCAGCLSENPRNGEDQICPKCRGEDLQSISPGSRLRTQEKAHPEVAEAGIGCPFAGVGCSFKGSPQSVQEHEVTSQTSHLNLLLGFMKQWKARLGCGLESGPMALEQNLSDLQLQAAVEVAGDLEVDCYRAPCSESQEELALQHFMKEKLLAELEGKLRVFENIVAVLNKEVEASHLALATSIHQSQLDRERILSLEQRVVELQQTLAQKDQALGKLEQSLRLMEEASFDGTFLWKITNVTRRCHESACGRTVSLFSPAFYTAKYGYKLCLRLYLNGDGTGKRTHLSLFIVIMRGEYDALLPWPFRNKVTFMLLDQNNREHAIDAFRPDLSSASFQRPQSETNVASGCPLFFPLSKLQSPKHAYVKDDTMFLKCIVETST

Row | Variant | effect of a mutation on the interaction
8 | A34T | with no effect

Variants of: B4
Settings: with kr412_human KRTAP4-12, Q9BQ66

Row | Variant | effect of a mutation on the interaction
9 | G20S | with no effect
